Experiment [1] addresses T1, Sequestrin GST-R(0-IV) fusion protein (Plasmodium falciparum).
T1 construct: The five domains R0-RIV are said to represent the entirety of amino acids H42-A458; also called domain combination R(0-IV); not shown: glutathione S-transferase fusion partner encoded by vector pGEX-3X (Pharmacia), followed by a Factor Xa site
T1 chain: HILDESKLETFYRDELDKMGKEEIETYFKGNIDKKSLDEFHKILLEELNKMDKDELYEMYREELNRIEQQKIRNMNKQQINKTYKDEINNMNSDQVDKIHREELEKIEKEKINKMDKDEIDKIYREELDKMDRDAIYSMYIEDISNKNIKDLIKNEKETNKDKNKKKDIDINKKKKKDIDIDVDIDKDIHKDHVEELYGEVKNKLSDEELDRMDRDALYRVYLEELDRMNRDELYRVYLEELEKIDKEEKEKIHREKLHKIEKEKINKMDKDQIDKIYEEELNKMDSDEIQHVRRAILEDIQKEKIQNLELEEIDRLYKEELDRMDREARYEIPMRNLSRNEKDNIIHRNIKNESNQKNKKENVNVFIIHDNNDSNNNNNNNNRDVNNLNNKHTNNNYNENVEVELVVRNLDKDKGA
Description: competition of 125I-CD36 binding to plate-coated GST-R(0-IV) by unlabeled CD36, gamma counting.

The target in another experiment is radiolabeled ICAM-1 (UniProt P05362 28-532, radiolabelled). Description: bacterial extracts blotted and probed with radiolabeled ICAM-1.
radiolabeled ICAM-1, sequence (P05362 28-532 limits assumed): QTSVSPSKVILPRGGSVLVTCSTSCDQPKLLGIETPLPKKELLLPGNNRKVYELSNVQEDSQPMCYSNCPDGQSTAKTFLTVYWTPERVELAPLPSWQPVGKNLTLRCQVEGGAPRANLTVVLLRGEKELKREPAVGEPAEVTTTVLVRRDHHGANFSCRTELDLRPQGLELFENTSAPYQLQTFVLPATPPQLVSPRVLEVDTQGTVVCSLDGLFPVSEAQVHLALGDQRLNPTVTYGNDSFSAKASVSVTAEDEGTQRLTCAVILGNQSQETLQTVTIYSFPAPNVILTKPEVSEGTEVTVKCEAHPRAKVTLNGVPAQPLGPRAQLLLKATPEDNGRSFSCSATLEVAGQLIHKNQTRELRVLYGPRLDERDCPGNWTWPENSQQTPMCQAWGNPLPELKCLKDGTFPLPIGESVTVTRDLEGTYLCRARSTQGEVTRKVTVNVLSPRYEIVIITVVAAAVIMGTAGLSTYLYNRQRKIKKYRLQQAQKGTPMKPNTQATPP

B1: CD36 (purified) (receptor)
chain: GCDRNCGLIAGAVIGAVLAVFGGILMPVGDLLIQKTIKKQVVLEEGTIAFKNWVKTGTEVYRQFWIFDVQNPQEVMMNSSNIQVKQRGPYTYRVRFLAKENVTQDAEDNTVSFLQPNGAIFEPSLSVGTEADNFTVLNLAVAAASHIYQNQFVQMILNSLINKSKSSMFQVRTLRELLWGYRDPFLSLVPYPVTTTVGLFYPYNNTADGVYKVFNGKDNISKVAIIDTYKGKRNLSYWESHCDMINGTDAASFPPFVEKSQVLQFFSSDICRSIYAVFESDVNLKGIPVYRFVLPSKAFASPVENPDNYCFCTEKIISKNCTSYGVLDISKCKEGRPVYISLPHFLYASPDVSEPIDGLNPNEEEHRTYLDIEPITGFTLQFAKRLQVNLLVKPSEKIQVLKNLKRNYIVPILWLNETGTIGDEKANMFRSQVTGKINLLGLIEMILLSVGVVMFVAFMISYCACRSKTIK
modifications: 125I-labelled where used as probe
notes: Purified protein, a gift from Dr. N. Tandon; Used 125I-labelled in solution or coated on plates or dishes; also called 125I-CD36; radiolabelled human CD36
The molecule B1 showed a Ki in experiment [1] of around 6 nM.

B2: trpE fusion protein representing Sequestrin amino acids H42-A458 (other)
chain: HILDESKLETFYRDELDKMGKEEIETYFKGNIDKKSLDEFHKILLEELNKMDKDELYEMYREELNRIEQQKIRNMNKQQINKTYKDEINNMNSDQVDKIHREELEKIEKEKINKMDKDEIDKIYREELDKMDRDAIYSMYIEDISNKNIKDLIKNEKETNKDKNKKKDIDINKKKKKDIDIDVDIDKDIHKDHVEELYGEVKNKLSDEELDRMDRDALYRVYLEELDRMNRDELYRVYLEELEKIDKEEKEKIHREKLHKIEKEKINKMDKDQIDKIYEEELNKMDSDEIQHVRRAILEDIQKEKIQNLELEEIDRLYKEELDRMDREARYEIPMRNLSRNEKDNIIHRNIKNESNQKNKKENVNVFIIHDNNDSNNNNNNNNRDVNNLNNKHTNNNYNENVEVELVVRNLDKDKGA
notes: Tested in a bacterial extract, blotted
Turning to B2, the binding result with radiolabeled ICAM-1 is recorded as “no binding”.

Usually Ki stands for the equilibrium dissociation constant of an inhibitor or competing ligand from its target.

For the origin of these results see patent US20020042382A1 (UNITED STATES OF AMERICA AS REPRESENTED BY THE SECRETARY OF …, published 2002).
